Source: paper PMC7039627
pKd: −log10 of the molar value.

Target: extracellular domain of hCTLA-4 (Homo sapiens) (UniProt P16410)
Experiment: SPR

Chain of UniProt P16410 (P16410 36-161): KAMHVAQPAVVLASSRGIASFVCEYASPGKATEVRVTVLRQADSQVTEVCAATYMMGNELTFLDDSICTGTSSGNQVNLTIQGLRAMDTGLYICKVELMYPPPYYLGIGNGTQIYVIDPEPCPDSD

With Ipilimumab (antibody) as the substance, how does the pKd read?
Its pKd is 8.43.
